Data reported in US20100093618A1.

Molecular target: FLAG-Tat (p3XFLAG-CMV-Tat, wild type) (HIV-1) (UniProt P04608)
Experiment: cell-based or functional assay

Substance: HA-IκB-α 72-287 (pCMV4-HA-IκB-α 72-287, expressed in transfected cells) (from UniProt P25963 72-287)
- translocation of Tat from the nucleus to the cytoplasm (confocal microscopy, HeLa cells) (% of the analyzed cells): 50
